Measured values published in patent US20260055430, “[…] WITH ALTERED […] ACTIVITY” (Flagship Pioneering Innovations VI, LLC, published 2026).

Key:
Int106 (Integrase 1223) = test: cell_activity; details: ~500 bp region template
[1] = test system: Int29/Int105 (Integrase 477); test: cell_activity; details: Int29; same accession as Int105 gave 0.77
Int138 (Integrase 1116) = test: cell_activity; details: HEK293T, template with ~500 bp region containing attP; attP from Table 2
Int104 (Integrase 1222) = test: cell_activity; details: ~500 bp region template
Int171 (Integrase 450) = test: cell_activity; details: ~500 bp region template
Int22 (Integrase 1207) = test: cell_activity; details: ~500 bp region template
Int30 (Integrase 436) = test: cell_activity; details: ~500 bp region template
Int182 (Integrase 1227) = test: cell_activity; details: ~500 bp region template
Int17 (Integrase 1206) = test: cell_activity; details: ~500 bp region template
Int94 (Integrase 1219) = target: T1, Int94 (Integrase 1219) (UniProt A7GVM1); test: cell_activity; details: ~500 bp region template
T1 sequence: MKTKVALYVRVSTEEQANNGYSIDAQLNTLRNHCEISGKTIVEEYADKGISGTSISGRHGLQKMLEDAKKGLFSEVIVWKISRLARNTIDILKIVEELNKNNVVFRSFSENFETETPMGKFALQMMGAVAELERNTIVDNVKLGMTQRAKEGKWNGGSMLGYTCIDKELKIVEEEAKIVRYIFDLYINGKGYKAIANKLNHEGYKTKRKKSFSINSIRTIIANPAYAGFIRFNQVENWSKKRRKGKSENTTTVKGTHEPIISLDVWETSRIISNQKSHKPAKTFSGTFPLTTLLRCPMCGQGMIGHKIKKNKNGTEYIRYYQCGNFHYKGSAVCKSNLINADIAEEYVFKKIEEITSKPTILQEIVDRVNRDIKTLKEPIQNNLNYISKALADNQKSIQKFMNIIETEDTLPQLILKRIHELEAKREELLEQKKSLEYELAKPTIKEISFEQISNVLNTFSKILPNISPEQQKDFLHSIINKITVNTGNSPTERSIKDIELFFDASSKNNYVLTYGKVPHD

Int103 (Integrase 1221) = target: T2, Int103 (Integrase 1221) (UniProt Q928V6 Q928V6:1-452); test: cell_activity; ~500 bp region template
T2 sequence: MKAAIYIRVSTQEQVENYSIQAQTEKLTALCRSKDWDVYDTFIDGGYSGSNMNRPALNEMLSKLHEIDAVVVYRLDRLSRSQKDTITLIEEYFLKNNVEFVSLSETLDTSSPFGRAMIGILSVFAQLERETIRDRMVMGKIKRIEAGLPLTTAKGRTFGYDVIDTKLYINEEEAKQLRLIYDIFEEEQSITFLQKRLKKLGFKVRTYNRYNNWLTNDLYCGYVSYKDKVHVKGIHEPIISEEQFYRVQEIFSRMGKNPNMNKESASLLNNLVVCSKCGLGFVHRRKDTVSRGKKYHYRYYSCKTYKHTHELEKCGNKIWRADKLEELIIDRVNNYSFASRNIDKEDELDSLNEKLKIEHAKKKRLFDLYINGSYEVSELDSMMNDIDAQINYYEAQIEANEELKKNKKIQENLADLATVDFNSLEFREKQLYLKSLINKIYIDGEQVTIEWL

Int60 (Integrase 27) = target: T3, Int60 (Integrase 27) (UniProt Q858X3 Q858X3:1-594); test: cell_activity; ~500 bp region template
T3 sequence: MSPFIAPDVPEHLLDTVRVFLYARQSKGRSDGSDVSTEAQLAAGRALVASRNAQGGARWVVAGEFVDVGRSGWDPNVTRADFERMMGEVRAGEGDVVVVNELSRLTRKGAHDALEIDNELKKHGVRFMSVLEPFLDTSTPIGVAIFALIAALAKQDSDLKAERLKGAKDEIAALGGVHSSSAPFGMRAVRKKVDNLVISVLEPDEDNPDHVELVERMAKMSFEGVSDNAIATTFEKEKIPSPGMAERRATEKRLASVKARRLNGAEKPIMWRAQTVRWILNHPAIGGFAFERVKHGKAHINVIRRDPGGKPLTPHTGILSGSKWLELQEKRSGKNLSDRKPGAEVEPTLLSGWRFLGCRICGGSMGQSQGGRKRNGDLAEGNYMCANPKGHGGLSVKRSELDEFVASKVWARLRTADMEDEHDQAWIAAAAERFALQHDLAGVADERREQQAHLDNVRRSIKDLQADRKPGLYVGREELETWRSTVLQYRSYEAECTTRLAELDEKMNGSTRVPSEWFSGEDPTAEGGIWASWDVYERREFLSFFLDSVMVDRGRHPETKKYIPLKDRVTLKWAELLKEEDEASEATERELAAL

Int192 (Integrase 165) = target: T4, Int192 (Integrase 165) (UniProt C9DC17 C9DC17:1-507); test: cell_activity; ~500 bp region template
T4 sequence: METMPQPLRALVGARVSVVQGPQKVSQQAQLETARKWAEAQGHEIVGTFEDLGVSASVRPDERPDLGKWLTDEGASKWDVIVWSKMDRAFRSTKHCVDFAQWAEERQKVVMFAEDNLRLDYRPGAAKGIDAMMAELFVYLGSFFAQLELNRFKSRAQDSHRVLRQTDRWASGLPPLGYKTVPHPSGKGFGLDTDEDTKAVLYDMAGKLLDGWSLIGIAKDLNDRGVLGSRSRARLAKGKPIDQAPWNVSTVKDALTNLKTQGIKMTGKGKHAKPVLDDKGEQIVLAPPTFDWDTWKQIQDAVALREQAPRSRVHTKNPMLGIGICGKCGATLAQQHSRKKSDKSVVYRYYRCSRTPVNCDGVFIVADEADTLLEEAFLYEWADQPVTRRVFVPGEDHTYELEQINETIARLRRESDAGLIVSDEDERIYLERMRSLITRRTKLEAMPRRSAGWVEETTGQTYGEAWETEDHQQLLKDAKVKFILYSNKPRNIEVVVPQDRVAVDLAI

For “CAATGAAAAACTAGGCATGTAGAAGTTGTTTGT (double strand) [1223 attP]”, the activity (Int106 (Integrase 1223)) was 1.77 % GFP+.

“TTCCTCGTTTTCTCTCGTTGGAAGAAGAAGAAACGAGAAA (double strand) [477 attP]” was tested, and the activity [1] was 0.91 % GFP+.

“TGTAGTAAGTATCTTAATATACAGCTTTATCTGTTTTTTAAGATACTTACTACTTT (double strand) [1116 attP]” showed an activity (Int138 (Integrase 1116)) of 27.6 % GFP+.

Molecule “TTCCTCGTTTTCTCTCGTTGGACGGAAACGAATCGAGAAA (double strand) [1222 attP]” has an activity (Int104 (Integrase 1222)) of 0.58 % GFP+.

“TATTAGTATAGAAGAAAGCTCTCAGCACACGTGGAGTGTGTTGCTCTCTGCTCGTAAAGCCT (double strand) [450 attP]” gave an activity (Int171 (Integrase 450)) of 0.16 % GFP+.

“AAAAGAATCCAAATTATCGTACTTTAACATAGTGAATACTGTCCATCATGTATAAAAGTACG (double strand) [1207 attP]” gave an activity (Int22 (Integrase 1207)) of 0.16 % GFP+.

With “ATTTTAGGTATATGATTTTGTTTATTAGTGTAAATAACACTATGTACCTAAAAT (double strand) [436 attP]” the activity (Int30 (Integrase 436)) was 10.1 % GFP+.

With “AAATATAACCTGTGTATTGAAACAAGGTGCTGATAAAACCCTTTCATAAACACAAGTAAATA (double strand) [1227 attP]” the activity (Int182 (Integrase 1227)) was 0.22 % GFP+.

In the case of “GTTAGGTGTATATCATACCTAACGCAATTCATTACATCACATATGTTATACACCTACTTTAA (double strand) [1206 attP]”, the activity (Int17 (Integrase 1206)) is reported as 0.123 % GFP+.

Molecule “CAATAACGGTTGTATTTGTAGAACTTGACCAGTTGTTTTAGTAACATAAATACAACTCCGAATA (double strand) [1219 attP]” has an activity (Int94 (Integrase 1219)) of 0.23 % GFP+.

B1: 1221 attP (dsDNA)
DNA 1: GTTTAGTATCTCGTTATCTCTCGTTGGAGGGAGAAGAAACGGGATACCAAAA
DNA 2: TTTTGGTATCCCGTTTCTTCTCCCTCCAACGAGAGATAACGAGATACTAAAC
Molecule B1 has an activity (Int103 (Integrase 1221)) of 0.22 % GFP+.

B2: 27 attP (dsDNA)
DNA 1: GGTGCTGGGTTGTTGTCTCTGGACAGTGATCCATGGGAAACTACTCAGCACC
DNA 2: GGTGCTGAGTAGTTTCCCATGGATCACTGTCCAGAGACAACAACCCAGCACC
B2 gave an activity (Int60 (Integrase 27)) of 0.17 % GFP+.

B3: 165 attP (dsDNA)
DNA 1: TAGTTTCCAATGTTACAGGAACTGCTGGCAGAATCCAACACATTGGAAGTCG
DNA 2: CGACTTCCAATGTGTTGGATTCTGCCAGCAGTTCCTGTAACATTGGAAACTA
With B3 the activity (Int192 (Integrase 165)) was 0.57 % GFP+.
